Biological target: GILT-tagged GAA ZC-701 (human, UniProt P10253 70-952)
Assay: SPR (Biacore 3000); biotinylated CI-MPR Dom10-13 on SA chip, analyte in solution, steady-state affinity fit, I1572T mutant surface as reference
Procedure: Following docking of the SA sensor chip, the SA chip was washed two times with deionized water. The flow cells to be coupled were conditioned by injecting 60 ml of a buffer containing 50 mM NaOH/1 M NaCl at a flow rate of 20 ml/min. The chip was washed with H2O as described above. The chip was then washed with coupling buffer (10 mM HEPES pH 7.4/100 mM NaCl) as described above. […] Flow cells (FC) 1 & 2 were coupled at a higher density than FC 3 & 4. FC1 and FC3 were immobilized with the mutant Dom 10-13 construct and were used as the reference surface (i.e., the response obtained from FC1 was subtracted from FC2; the response obtained from FC3 was subtracted from FC4). FC2 and FC4 were immobilized with the wild-type Dom10-13 construct. […] Following the 50 ml injection of coupling buffer containing the Dom10-13 constructs, the chip was washed with coupling buffer alone (10 ml injection at a flow rate of 10 ml/min). Remaining unbound streptavidin binding sites were saturated with biotin by two sequential 10 ml injections of biotin (10 mM) at a flow rate of 10 μl/min.
After coupling, the flow cells were equilibrated in running buffer (10 mM HEPES pH 7.0, 150 mM NaCl, and 0.005% (v/v) surfactant P20).

- Kd: 33 nM
B1: biotinylated, His-tagged recombinant wild-type CI-MPR domains 10-13 (1288FS) (receptor)
chain: AGAPTGHHHHHHAPGLNDIFEAQKIEWHEPFDLTECSFKDGAGNSFDLSSLSRYSDNWEAITGTGDPEHYLINVCKSLAPQAGTEPCPPEAAACLLGGSKPVNLGRVRDGPQWRDGIIVLKYVDGDLCPDGIRKKSTTIRFTCSESQVNSRPMFISAVEDCEYTFAWPTATACPMKSNEHDDCQVTNPSTGHLFDLSSLSGRAGFTAAYSEKGLVYMSICGENENCPPGVGACFGQTRISVGKANKRLRYVDQVLQLVYKDGSPCPSKSGLSYKSVISFVCRPEAGPTNRPMLISLDKQTCTLFFSWHTPLACEQATECSVRNGSSIVDLSPLIHRTGGYEAYDESEDDASDTNPDFYINICQPLNPMHGVPCPAGAAVCKVPIDGPPIDIGRVAGPPILNPIANEIYLNFESSTPCLADKHFNYTSLIAFHCKRGVSMGTPKLLRTSECDFVFEWETPVVCPDEVRMDGCTLTDEQLLYSFNLSSLSTSTFKVTRDSRTYSVGVCTFAVGPEQGGCKDGGVCLLSGTKGASFGRLQSMKLDYRHQDEAVVLSYVNGDRCPPETDDGVPCVFPFIFNGKSYEECIIESRAKLWCSTTADYDRDHEWGFCRHSNSYRTSSIIFKCDEDEDIGRPQVFSEVRGCDVTFEWKTKVVCP
modifications: biotinylated with BirA enzyme in the Biotin AS domain
notes: The protein was immobilised on a streptavidin chip; also called p1288; HIS-BIOTIN-CI-MPR DOMAINS 10-13

Source: patent publication US20090117091A1 (BIOMARIN PHARMACEUTICAL, published 2009)
